Test results reported in IntAct's records for PubMed 18524952.

B1: DNA replication licensing factor MCM3 (Mus musculus), P25206 (parent)
chain: MAGTVVLDDVELREAQRDYLDFLDDEEDQGIYQNKVRELISDNQYRLIVSVNDLRRKNEKRANRLLNNAFEELVAFQRALKDFVASIDATYAKQYEEFYIGLEGSFGSKHVSPRTLTSCFLSCVVCVEGIVTKCSLVRPKVVRSVHYCPATKKTIERRYSDLTTLVAFPSSSVYPTKDEENNPLETEYGLSVYKDHQTITIQEMPEKAPAGQLPRSVDVILDDDLVDKVKPGDRIQVVGTYRCLPGKKGCYTSGTFRTVLIACNVKQMSKDIQPAFSADDIAKIKKFSKTRSKDVFEQLARSLAPSIHGHDYVKKAILCLLLGGVERELENGSHIRGDINILLIGDPSVAKSQLLRYVLCTAPRAIPTTGRGSSGVGLTAAVTTDQETGERRLEAGAMVLADRGVVCIDEFDKMSDMDRTAIHEVMEQGRVTIAKAGIHARLNARCSVLAAANPVYGRYDQYKTPMENIGLQDSLLSRFDLLFIMLDQMDPEQDREISDHVLRMHQYRAPGEQDGDALPLGSSVDILATDDPDFTQDDQQDTRIYEKHDSLLHGTKKKKEKMVSAAFMKKYIHVAKIIKPTLTQESAAYIAEEYSRLRSQDSMSSDTARTSPVTARTLETLIRLATAHAKARMSKTVDLQDAEEAVELVQYAYFKKVLEKEKKRKKASEDESDLEDEEEKSQEDTEQKRKRRKTHAKDGESYDPYDFSEAETQMPQVHTPKTDDSQEKTDDSQETQDSQKVELSEPRLKAFKAALLEVFQEAHEQSVGMLHLTESINRNREEPFSSEEIQACLSRMQDDNQVMVSEGIVFLI
partner: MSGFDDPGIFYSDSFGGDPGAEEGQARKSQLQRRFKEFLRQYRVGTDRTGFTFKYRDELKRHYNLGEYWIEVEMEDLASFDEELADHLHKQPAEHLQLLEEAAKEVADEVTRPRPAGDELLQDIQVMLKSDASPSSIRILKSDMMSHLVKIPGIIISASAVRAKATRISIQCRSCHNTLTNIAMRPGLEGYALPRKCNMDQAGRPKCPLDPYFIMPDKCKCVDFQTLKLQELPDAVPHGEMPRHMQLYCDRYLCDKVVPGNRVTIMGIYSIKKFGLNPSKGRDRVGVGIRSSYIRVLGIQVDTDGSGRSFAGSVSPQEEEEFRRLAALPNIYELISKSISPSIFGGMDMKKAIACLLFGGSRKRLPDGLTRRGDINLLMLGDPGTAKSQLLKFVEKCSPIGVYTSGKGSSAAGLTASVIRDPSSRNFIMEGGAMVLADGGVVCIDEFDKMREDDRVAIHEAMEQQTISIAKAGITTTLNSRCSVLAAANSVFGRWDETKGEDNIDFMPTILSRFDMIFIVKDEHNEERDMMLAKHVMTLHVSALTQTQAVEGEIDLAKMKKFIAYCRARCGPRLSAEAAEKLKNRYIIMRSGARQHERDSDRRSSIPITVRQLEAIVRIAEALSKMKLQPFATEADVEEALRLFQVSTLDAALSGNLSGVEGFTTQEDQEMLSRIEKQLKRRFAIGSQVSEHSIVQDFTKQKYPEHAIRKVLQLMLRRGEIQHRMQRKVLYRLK
B2: DNA replication licensing factor MCM3 (Mus musculus), P25206 (parent)
chain: B1 chain

Variants of: B1
Details: with mcm5_mouse Mcm5, P49718

Row | Variant | effect of a mutation on the interaction
1 | S112A;T719A | decreasing interaction
2 | S112A;T464A;S611A;T719A | disrupting interaction
3 | S112A | decreasing interaction
4 | S112A;S611A | decreasing interaction

Variants of: B2
Details: with mcm2_mouse Mcm2, P97310
mcm2_mouse Mcm2, P97310, sequence (P97310 whole entry): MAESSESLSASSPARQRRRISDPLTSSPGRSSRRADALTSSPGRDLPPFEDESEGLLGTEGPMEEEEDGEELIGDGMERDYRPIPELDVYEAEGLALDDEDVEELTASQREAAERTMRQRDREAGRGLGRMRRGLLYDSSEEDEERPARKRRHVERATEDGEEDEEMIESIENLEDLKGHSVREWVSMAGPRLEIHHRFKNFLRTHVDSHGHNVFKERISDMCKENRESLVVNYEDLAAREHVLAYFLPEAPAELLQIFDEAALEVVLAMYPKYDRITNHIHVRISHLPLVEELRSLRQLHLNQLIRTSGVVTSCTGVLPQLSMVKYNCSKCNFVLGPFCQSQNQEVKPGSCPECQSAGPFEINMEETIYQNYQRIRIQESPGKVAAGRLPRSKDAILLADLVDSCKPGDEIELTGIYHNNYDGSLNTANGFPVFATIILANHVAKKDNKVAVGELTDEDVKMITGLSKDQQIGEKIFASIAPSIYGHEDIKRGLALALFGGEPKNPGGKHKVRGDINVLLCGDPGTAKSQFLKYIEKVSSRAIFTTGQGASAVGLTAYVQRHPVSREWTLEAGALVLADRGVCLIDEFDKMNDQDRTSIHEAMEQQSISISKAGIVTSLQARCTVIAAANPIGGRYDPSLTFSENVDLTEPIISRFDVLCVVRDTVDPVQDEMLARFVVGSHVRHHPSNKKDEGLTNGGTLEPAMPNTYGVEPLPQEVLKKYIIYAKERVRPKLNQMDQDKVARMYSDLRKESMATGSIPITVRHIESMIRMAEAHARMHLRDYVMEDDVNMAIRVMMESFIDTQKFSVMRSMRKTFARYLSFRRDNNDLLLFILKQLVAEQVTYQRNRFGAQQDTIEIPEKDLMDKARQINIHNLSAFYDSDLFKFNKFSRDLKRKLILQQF

Row | Variant | effect of a mutation on the interaction
5 | S112A | disrupting interaction

Variants of: B2
Details: with mcm7_mouse Mcm7, Q61881
mcm7_mouse Mcm7, Q61881, sequence (Q61881 whole entry): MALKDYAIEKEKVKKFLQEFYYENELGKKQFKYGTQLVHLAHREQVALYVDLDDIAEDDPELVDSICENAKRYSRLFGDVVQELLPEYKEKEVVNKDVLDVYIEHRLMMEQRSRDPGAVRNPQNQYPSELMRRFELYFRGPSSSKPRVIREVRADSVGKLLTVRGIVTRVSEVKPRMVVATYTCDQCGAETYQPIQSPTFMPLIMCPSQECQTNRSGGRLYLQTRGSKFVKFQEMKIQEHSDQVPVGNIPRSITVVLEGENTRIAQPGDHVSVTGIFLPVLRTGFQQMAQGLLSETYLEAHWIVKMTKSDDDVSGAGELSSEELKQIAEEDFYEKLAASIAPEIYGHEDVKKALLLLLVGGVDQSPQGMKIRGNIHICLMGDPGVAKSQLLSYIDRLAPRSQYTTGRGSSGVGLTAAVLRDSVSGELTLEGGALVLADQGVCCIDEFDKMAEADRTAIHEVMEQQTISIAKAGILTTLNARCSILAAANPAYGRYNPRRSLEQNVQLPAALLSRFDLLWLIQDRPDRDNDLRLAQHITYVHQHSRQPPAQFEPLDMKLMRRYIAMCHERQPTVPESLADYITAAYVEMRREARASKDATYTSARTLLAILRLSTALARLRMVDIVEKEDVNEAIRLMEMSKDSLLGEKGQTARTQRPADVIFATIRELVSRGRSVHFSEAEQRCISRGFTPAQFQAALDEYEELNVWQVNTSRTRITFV

Row | Variant | effect of a mutation on the interaction
6 | S112A | disrupting interaction
